Data on 19 molecules can be found in patent US20140271469A1 (Stanford University, published 2014).

Ends that are not written are not given here. * marks the point of attachment. DOTA = O=C(O)CN1CCN(CC(=O)O)CCN(CC(=O)*)CCN(CC(=O)O)CC1

In assay [1] the target is T1, Native integrin αvβ6 on cells (BxPC-3, A431) (human, UniProt P06756 31-1048; P18564 22-788).
T1 construct: whole, on cells; The cells also carry other integrins; also called integrin αvβ6 expressing cells; target expressing cells
Briefly: cell uptake assay with radiolabeled peptide (FIG. 5).

For assay [2], the target named is T2, Recombinant human integrin αvβ6 (human, UniProt P06756 31-992; P18564 22-707).
T2 construct: Bought soluble heterodimer; also called alpha-v-beta-6; avb6
Briefly: flow cytometry of yeast-displayed grafts with integrin αvβ6 (data not shown). In general terms: Flow cytometry measures light scatter and fluorescence of single cells or particles in a stream.

The target in assay [3] is Recombinant human integrin αvβ5 (human, UniProt P06756 31-992; P18084 24-719). Description: flow cytometry, peptide displayed on yeast, soluble integrin (FIG. 1C).
Sequence of Recombinant human integrin αvβ5 (P18084 24-719, one chain of several): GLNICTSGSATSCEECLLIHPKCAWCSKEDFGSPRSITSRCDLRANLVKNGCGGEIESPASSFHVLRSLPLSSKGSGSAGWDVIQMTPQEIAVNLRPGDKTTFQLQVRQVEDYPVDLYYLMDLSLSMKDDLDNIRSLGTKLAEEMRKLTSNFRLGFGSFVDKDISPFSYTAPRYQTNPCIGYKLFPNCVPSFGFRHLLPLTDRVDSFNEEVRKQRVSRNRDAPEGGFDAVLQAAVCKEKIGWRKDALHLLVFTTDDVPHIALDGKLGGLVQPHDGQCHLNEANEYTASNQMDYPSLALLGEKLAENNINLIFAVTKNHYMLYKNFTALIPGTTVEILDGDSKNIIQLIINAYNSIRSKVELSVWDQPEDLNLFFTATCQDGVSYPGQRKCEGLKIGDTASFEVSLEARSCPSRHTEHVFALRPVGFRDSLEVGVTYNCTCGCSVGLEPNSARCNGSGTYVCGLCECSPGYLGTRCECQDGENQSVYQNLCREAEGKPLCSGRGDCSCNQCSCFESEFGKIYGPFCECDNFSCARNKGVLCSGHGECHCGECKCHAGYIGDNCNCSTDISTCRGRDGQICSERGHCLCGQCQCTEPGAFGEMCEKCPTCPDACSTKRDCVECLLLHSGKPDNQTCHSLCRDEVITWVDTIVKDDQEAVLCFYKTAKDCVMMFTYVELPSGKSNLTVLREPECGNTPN
Assay [4] deals with Recombinant human integrin α5β1 (human, UniProt P08648 42-995; P05556 21-728). The assay is described as above.
Sequence of Recombinant human integrin α5β1 (P08648 42-995, chain 1 of 2): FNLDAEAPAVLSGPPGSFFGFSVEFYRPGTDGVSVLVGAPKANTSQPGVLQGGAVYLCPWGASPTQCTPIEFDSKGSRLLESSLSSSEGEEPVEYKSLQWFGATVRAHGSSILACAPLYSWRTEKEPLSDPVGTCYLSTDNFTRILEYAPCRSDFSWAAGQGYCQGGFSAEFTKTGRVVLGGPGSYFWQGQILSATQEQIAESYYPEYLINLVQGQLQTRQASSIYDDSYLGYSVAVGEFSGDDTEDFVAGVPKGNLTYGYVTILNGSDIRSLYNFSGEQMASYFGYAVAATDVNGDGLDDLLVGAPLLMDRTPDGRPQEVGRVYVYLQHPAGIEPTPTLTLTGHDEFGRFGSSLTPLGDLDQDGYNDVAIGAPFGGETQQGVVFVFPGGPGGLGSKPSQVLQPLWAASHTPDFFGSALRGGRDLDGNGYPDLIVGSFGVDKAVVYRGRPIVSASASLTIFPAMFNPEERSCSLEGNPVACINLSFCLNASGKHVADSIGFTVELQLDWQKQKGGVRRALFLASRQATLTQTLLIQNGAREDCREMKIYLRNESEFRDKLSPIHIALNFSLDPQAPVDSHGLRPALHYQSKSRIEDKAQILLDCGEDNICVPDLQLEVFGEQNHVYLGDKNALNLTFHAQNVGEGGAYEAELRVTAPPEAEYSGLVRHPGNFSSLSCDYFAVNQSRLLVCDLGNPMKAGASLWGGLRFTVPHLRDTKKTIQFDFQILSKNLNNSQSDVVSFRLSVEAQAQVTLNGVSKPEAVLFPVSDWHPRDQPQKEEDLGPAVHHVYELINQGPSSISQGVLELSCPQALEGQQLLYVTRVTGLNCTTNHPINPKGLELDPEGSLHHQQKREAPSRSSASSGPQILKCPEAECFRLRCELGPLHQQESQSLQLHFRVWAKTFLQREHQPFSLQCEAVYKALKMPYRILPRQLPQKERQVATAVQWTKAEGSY
Sequence of Recombinant human integrin α5β1 (P05556 21-728, chain 2 of 2): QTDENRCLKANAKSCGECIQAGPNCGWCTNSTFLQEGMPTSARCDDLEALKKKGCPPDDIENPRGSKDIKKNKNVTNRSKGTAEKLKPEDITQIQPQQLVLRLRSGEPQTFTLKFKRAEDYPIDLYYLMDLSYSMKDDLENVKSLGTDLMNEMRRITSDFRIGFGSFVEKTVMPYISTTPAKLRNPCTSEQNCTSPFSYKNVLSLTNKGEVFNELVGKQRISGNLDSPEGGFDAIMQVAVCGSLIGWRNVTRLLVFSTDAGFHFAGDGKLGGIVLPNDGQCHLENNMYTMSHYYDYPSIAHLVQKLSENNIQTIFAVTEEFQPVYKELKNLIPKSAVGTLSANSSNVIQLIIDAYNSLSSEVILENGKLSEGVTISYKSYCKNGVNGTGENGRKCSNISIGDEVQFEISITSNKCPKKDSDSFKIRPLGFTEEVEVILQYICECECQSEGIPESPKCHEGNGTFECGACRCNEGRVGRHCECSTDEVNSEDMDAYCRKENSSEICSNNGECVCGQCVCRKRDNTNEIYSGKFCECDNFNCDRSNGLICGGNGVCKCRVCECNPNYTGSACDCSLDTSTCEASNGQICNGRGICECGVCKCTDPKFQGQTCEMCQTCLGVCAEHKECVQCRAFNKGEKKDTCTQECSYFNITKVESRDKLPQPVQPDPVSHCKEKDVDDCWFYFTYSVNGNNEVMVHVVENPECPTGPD
Assay [5] deals with Recombinant human integrin αvβ3 (human, UniProt P06756 31-992; P05106 27-718). The description is as above.
Sequence of Recombinant human integrin αvβ3 (P05106 27-718, one chain of several): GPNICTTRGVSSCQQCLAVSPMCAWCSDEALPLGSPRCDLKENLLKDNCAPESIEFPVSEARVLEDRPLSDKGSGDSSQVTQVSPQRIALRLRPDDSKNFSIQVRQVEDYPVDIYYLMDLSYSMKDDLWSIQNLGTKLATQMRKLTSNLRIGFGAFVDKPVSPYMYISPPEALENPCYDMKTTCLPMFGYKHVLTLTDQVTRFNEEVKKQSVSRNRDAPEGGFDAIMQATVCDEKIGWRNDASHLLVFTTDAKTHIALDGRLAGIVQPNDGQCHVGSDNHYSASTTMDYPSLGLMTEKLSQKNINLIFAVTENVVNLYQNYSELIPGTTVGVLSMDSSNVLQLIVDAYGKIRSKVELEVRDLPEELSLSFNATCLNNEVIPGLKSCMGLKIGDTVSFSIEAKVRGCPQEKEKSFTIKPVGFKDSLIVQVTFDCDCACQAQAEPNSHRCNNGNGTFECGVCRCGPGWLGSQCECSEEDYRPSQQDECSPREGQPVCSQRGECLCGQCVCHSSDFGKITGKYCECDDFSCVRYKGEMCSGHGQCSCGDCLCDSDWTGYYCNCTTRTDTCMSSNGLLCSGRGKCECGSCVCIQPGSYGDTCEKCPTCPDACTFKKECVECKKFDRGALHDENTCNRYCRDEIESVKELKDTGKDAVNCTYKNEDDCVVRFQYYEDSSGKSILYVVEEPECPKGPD
Assay [6] addresses T2, Recombinant human integrin αvβ6. Briefly: flow cytometry, peptide displayed on yeast, soluble integrin αvβ6.
The target is the same in assay [7]. Briefly: binding of scrambled peptide to soluble integrin αvβ6, normalised to R02 at 1 nM (FIG. 3A).
The target is the same in assay [8]. Description: flow cytometry, 10 nM integrin αvβ6, relative to R02.
In assay [9] the target is T3, Recombinant human integrin αvβ6 (human), P06756.
T3 chain 1: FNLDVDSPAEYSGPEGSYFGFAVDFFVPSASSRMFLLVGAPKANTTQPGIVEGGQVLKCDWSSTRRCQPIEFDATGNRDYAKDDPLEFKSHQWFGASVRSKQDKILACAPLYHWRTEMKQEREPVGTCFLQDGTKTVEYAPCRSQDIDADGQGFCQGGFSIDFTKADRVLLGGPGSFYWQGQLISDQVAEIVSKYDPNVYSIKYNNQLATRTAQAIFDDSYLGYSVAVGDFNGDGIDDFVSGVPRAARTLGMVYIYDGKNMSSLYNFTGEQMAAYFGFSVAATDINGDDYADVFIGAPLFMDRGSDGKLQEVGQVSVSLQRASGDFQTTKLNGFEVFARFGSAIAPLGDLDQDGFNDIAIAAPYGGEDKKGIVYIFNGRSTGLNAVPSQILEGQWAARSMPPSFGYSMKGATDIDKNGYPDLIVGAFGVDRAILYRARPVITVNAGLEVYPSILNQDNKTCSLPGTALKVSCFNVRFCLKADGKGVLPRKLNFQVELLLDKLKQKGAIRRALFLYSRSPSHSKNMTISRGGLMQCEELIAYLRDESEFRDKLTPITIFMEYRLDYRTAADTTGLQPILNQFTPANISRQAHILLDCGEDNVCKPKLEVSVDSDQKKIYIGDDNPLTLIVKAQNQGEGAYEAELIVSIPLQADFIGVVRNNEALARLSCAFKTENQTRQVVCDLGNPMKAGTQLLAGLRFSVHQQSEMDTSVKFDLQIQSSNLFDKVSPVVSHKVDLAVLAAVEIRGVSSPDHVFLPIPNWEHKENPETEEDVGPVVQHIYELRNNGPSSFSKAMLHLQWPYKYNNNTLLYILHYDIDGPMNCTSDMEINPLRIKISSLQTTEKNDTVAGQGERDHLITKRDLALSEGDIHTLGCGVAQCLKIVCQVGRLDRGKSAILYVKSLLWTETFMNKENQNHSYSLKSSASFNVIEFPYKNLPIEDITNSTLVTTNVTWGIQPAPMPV
T3 chain 2: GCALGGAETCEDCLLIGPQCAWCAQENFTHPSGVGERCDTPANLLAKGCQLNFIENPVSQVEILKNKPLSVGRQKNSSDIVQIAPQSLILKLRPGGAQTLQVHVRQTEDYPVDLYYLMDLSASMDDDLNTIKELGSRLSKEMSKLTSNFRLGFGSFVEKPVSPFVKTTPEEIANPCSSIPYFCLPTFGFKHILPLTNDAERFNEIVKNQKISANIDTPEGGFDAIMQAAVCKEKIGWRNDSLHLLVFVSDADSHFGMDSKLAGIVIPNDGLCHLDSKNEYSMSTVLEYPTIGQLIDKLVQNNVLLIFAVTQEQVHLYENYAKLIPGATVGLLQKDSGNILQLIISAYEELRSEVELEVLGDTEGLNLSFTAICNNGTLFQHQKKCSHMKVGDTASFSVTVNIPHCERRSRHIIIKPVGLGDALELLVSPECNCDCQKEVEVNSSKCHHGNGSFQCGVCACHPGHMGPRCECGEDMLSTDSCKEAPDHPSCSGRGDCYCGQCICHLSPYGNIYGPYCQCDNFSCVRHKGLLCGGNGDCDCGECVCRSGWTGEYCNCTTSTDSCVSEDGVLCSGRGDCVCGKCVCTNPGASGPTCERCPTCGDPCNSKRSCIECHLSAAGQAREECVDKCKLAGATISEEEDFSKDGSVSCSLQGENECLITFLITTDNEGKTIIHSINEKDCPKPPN
Description: cell sorting study, peptide expressed on the surface of yeast.

Assay [10] concerns the target T2, Recombinant human integrin αvβ6. The assay is described as above.

For the molecule {DOTA}-GCRSLARTDLDHLRGRCRRDSDCPGACICRGNGYCG (cysteine pairing not given here; also: 64Cu complex of DOTA, also called 64Cu-DOTA-labeled R02) [64Cu-DOTA-R02], in assay [1], the binding result was “binds”.

GCGGHPRTDLASLAKRCRRDSDCPGACICRGNGYCG (also called graft 3) [G3]: in assay [2], the binding result is listed as “binds”.

B1: S01 (peptide)
peptide: GCILNMRTDLGTLLFRCSSDSDCLAECICLENGFCG
notes: It says only that activity '1' was tested in the S0 scaffold; also called activity '1' in the S0 scaffold
As for B1, the binding result in [3], in assay [4] and in [5] was “no binding” throughout. The Kd in assay [6] is 6.5 nM.

In the case of GCGHPRTDLASLAKRCRRDSDCPGACICRGNGYCG (also called graft 2) [G2], the binding result in assay [2] is on record as “binds”.

B2: S02 (peptide)
peptide: GCRSLARTDLDHLRDRCSSDSDCLAECICLENGFCG
modifications: disulfide (positions not given here); not fully specified (bridges); also: three disulfide bonds, places not given here
notes: also called activity '2' in the S0 scaffold
Turning to B2, the binding result in assay [3], in [4] and in [5] was “no binding” throughout. Besides, in assay [6], the Kd amounted to 6 nM.

B3: S03 (peptide)
peptide: GCRLVFRTDLDHLRGRCSSDSDCLAECICLENGFCG
notes: It says only that activity '3' was tested in the S0 scaffold; The chain is composed here from the loop of R03 and the scaffold of S02, and the residue limits were counted by me; also called activity '3' in the S0 scaffold
Consider B3, for which the binding result in assay [3], in assay [4] and in assay [5] was “no binding” throughout. The Kd in assay [6] was determined as 3.1 nM.

With GCRSLARDTLDHLRDRCSSDSDCLAECICLENGFCG (also called scrambled S02) [scS02], the binding result in assay [7] was “no binding (tested: 100 nM and 300 nM integrin αvβ6)”.

B4: R02 (peptide)
peptide: GCRSLARTDLDHLRGRCRRDSDCPGACICRGNGYCG
notes: also called activity '2' in the R0 scaffold
With B4, the binding result in assay [3], in assay [4] and in [5] was “no binding” in each case. In addition, the Kd in assay [6] came out at 3.2 nM.

B5: R03 (peptide)
peptide: GCRLVFRTDLDHLRGRCRRDSDCPGACICRGNGYCG
notes: also called activity '3' in the R0 scaffold
As for B5, the binding result in assay [3], in assay [4] and in assay [5] was “no binding” each time. The equilibrium dissociation constant (Kd) in assay [6] came out at 3.6 nM.

B6: R22 (peptide)
peptide: GCRSLARTDLDHLRGRCRRDSDCRGACICRGNGYCG
notes: also called activity '2' in arginine-rich scaffold R2
With B6, in [8], the binding result is “binds”.

B7: R12 (peptide)
peptide: GCRSLARTDLDHLRGRCRRDRDCPGACICRGNGYCG
notes: also called activity '2' in arginine-rich scaffold R1
Regarding B7, the binding result in assay [8] was “binds”.

B8: R32 (peptide)
peptide: GCRSLARTDLDHLRGRCRRDRDCRGACICRGNGYCG
notes: also called activity '2' in arginine-rich scaffold R3
Consider B8, for which the binding result in assay [8] is recorded as “binds”.

B9: E42 (peptide)
peptide: GCRSLARTDLDHLRGRCEEDSDCPGACICEGNGYCG
notes: also called activity '2' in glutamic acid-rich scaffold E4
As for B9, the binding result in [8] is “binds”.

B10: E12 (peptide)
peptide: GCRSLARTDLDHLRGRCRRDSDCPGACICEGNGYCG
notes: also called activity '2' in glutamic acid-rich scaffold E1
As for B10, the binding result in assay [8] is listed as “binds”.

For GCILNRRTDLGTLLFRCRRDSDCPGACICRGNGYCG (modifications not checked) [MΔR], the Kd in assay [9] worked out at 0.95 nM.

Take GCILNMRTDLGTLLFRCRRDSDCPGACICRGNGYCG (also called wild-type R01; wt) [R01]: in assay [4], the binding result was “no binding”. Also, the values for the Kd in [10] and in assay [6] were 1.07 nM and 3.6 nM, respectively.

For the molecule GCILNGRTDLGTLLFRCRRDSDCPGACICRGNGYCG (modifications not checked) [MΔG], the Kd in [9] was 1.24 nM.

GCILNMRDTLGTLLFRCRRDSDCPGACICRGNGYCG (also called scrambled R01) [scR01]: the binding result in assay [7] was “no binding (tested: 100 nM and 300 nM integrin αvβ6)”.

Take GCILNWRTDLGTLLFRCRRDSDCPGACICRGNGYCG (also called R01 tryptophan substitution) [MΔW]: the Kd in assay [10] amounted to 1.69 nM.

In general, Kd refers to the concentration at which binding is half-saturated.
